Reference: a protein production outcome set (Wang et al. 2014)

Experiment: label from the status in PepcDB records
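Also: failed if final PepcDB status was selected cloned or expressed and not failed if soluble or beyond.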

Sequence | protein production
MKASELRNYTDEELKNLLEEKKRQLMELRFQLAMGQLKNTSLIKLTKRDIARIKTILRERELGIRR | not failed
AIAAEAVLRVARRQLSQRGGSGAPILLRQMFEPVSCTFTYLLGDRESREAVLIDPVLETAPRDAQLIKELGLRLLYAVNTHCHADHITGSGLLRSLLPGCQSVISRLSGAQADLHIEDGDSIRFGRFALETRASPGHTPGCVTFVLNDHSMAFTGDALLIRGCGRTDFQQGCAKTLYHSVHEKIFTLPGDCLIYPAHDYHGFTVSTVEEERTLNPRLTLSCEEFVKIMGNLNLPKPQQIDFAVPANMRCGVQTPTA | failed
MTRPMRLAAVAAACLTMALAGCQTNGAGSTDGVVRTNEPSKGDVTSFGDAFDGLKTVSDVEYYASDQAVAEATNQFRAENYGNAGALFFKATQLAPNDGGAWMGLAASCDRIRRFDLADRAYGKAFKLVGASAEYYNNVGYSYLLRGKLQDARTSFLKAYELAPNDPTVANNLKLLSSSVQNIER | failed
VRQVEEYIEANWMRPITIEKLTALTGISSRGIFKAFQRSRGYSPMAFAKRVRLQHAHNLLSDGATPTTVTAAALSCGFSNLGHFARDYRDMFGEKPSETLQRARP | not failed
VLRWITAGESHGRALVAVVEGMVAGVHVTSADIADQLARRRLGYGRGARMTFERDAVTVLSGIRHGSTLGGPIAIEIGNTEWPKWETVMAADPVDPAELADVARNAPLTRPRPGHADYAGMLKYGFDDARPVLERASARETAARVAAGTVARAFLRQALGVEVLSHVISIGASAPYEGPPPRAEDLPAIDASPVRAYDKAAEADMIAQIEAAKKDGDTLGGVVEAVALGLPVGLGSFTSGDHRLDSQLAAAVMGIQAIKGVEIGDGFQTARRRGSRAHDEMYPGPDGVVRSTNRAGGLEGGMTNGQPLRVRAAMKPISTVPRALATVDLATGDEAVAIHQRSDVCAVPAAGVVVETMVALVLARAALEKFGGDSLAETQRNIAAYQRSVADREAPAARVSG | not failed
MMRIGLFLLTNLAVLVVAGIILSLFGVGSYHGAGGLNLGNLLVICFVFGMVGSLISLLMSKWMAKKTTGTEIIDPNAPRNQAEAWLLQTVAELSQRAGIQMPEVGIFPSYQSNAFATGWNKNDALVSVSTGLMERMNKDELRAVLAHEIGHVANGDMVTLALIQGVVNAFVMFFARVVGDFIDRNVFGRQDGEAPGMGYFAITIVLDIVFGILASAIVMWFSRHREYRADEAGARLAGKQAMISALLRLQAESEMPDQMPKEMKAFAIAEGKEQGFSLAALFQTHPSIEQRVAALQQLNCP | failed
MATLTEDDVLEQLDAQDNLFSFMKTAHSILLQGIRQFLPSLFVDNDEEIVEYAVKPLLAQSGPLDDIDVALRLIYALGKMDKWLYADITHFSQYWHYLNEQDETPGFADDITWDFISNVNSITRNATLYDALKAMKFADFAVWSEARFSGMVKTALTLAVTTTLKELTP | not failed
MKTIKDWQINICLATYNGQKYLRQQLDSIIQQGYTDWICLIRDDGSTDDTVAIIKEYVNRDSRFIFINSNDDRKLGSHRSFYELVNYKKADFYVFSDQDDVWKENRLERYLEEAEKFNQELPLLVYSNWTSVDEKLTVLKEHNPATVIQEQIAFNQINGMVIMMNHELAKLWEYRQIGAHDSYVGTLAYAVGNVAYISDSTVLWRRQVGAESLNNYGRQYGVATFWQMINTSFDRASLIFAQVSDKMSLERKLFFSRFIELKNANLMRRIYLLSKLKLRRKSLKETVAMTILLLTGYGKPKALEHHHHHH | not failed
MDSGPLWDANPTPRGTLSAPNATTPWLGRDEELAKVEIGVLATVLVLATGGNLAVLLTLGQLGRKRSRMHLFVLHLALTDLAVALFQVLPQLLWDITYRFQGPDLLCRAVKYLQVLSMFASTYMLLAMTLDRYLAVCHPLRSLQQPGQSTYLLIAAPWLLAAIFSLPQVFIFSLREVIQGSGVLDCWADFGFPWGPRAYLTWTTLAIFVLPVTMLTACYSLICHEICKNLKVKTQAWRVGGGGWRTWDRPSPSTLAATTRGLPSRVSSINTISRAKIRTVKMTFVIVLAYIACWAPFFSVQMWSVWDKNAPDEDSTNVAFTISMLLGNLNSCCNPWIYMGFNSHLLPRPLRHLACCGGPQPRMRRRLSDGSLSSRHTTLLTRSSCPATLSLSLSLTLSGRPRPEESPRDLELADGEGTAETIIF | failed
MHKEENMSDLYLKLVNTPVGKTAAQSLGLPSPAPLKRLKRVDQPFIEGDVLIGAGNGARAIATLGSIVGASPATLHHATGPETLAESAKTSNKAQALDITGEVSGKFSALIFDASGLQKPDELRALYDFFHPTIRKLATNGRVLVIGQDPHTCRKAPQAAAQQALEGFVRAVGKEIGKKGATANLVWIAPNAENQLDSSVRFFLSPRSAYVSGQVVRIGKADEAKATNPVAPLAGKVALVTGASRGIGAAIAETLARDGATVIGLDIPPALEELQKVTGALKGKALACDITDEKAPKLIADFIEKETGGVDFVIHNAGITRDKTLGNMPEHFWDMTIAVNLTAEELIDEELAERKLMRENGRIVCISSISGIAGNFGQTNYSCAKSGVIGYVEAMARHLKNGITINAIAPGFIETQMTAAMPFTIREAGRRMNSLSQGGQPVDVAEAIAWYCNPASAGVNGNVVRVCGQSLIGK | failed
MGNILKDKSMAFAIQIVNLHKYPNKRKAYSLSDQILISGTAIGVLQKETECAESNADFIHNIASPQKNVTKPFSGLNCYLKQNIYPKQNIQACLQTQMNLEHHHHHH | failed
MSLTIKLIAIDIDGTLLNEKNELAQETIDAVQAAKAQGIKVVLCTGRPLTGVQPYLDAMGISGDDQYAITFNGSVAQTISGKVLTNHSLTYEDYIDLEAWARKVRAHFQIETPDYIYTANKDISAYTIAESYLVRMLIRYREVSETPRDLTISKAMFVDYPQVIEQVKANMPQDFKDRFSVVQSAPYFIEVMNRRASKGGTLSELVDQLGLTADDVMTLGDQGNDLTMIKYAGLGVAMGNAIDEVKEAAQAVTLTNAENGVAAAIRKYALNEGHHHHHH | not failed
MIGALRHACPGSRAAAFVLSGLQTMTNEVKSAVRVIQILEYFDTVRREAGVLEISRALGFPASSTAGILRSLQRLSYLVQDEQRLYRPTPRVTLLGSWIDPLLAHDGPLMALMSHLSKATGETIILALQVDAGARYIHIIPSTQRVRLHVNVGDVRPLLTSGTGRLFVSTMEPDQVRRAVFRHNALRGANEPEINLSTVTRDATQIRKNGYATSLDRLVPGVGIIAALLPEREGTRPMAVAVGGPSVTIRARTAELASLLREGIGQYLPHLGNAGDQS | failed
MLPDSSVRLNKYISESGICSRREADRYIEQGNVFLNGKRATIGDQVKPGDVVKVNGQLIEPREAEDLVLIALNKPVGIVSTTEDGERDNIVDFVNHSKRVFPIGRLDKDSQGLIFLTNHGDLVNKILRAGNDHEKEYLVTVDKPITDEFIRGMGAGVPILGTVTKKCKVKKEAPFVFRITLVQGLNRQIRRMCEHFGYEVKKLERTRIMNVSLSGIPLGEWRDLTDDELIDLFKLIENSSSEAKPKAKAKPKTAGIKRPVVKMEKTAEKGGRPASNGKRFTSPGRKKKGR | not failed
MGIYQWRDKKKPSGGKRRYYYKVKRKYAAGRPPTYTTLSAAEEEERKPVRARGGSYKIKAKKVAFAVVSNPKTGEARKARILRIVETPAHREYARRGIIVKGAVIDTTLGRAVVTSRPGQEGVVNAVLLEEQGQKQLEHHHHHH | not failed
MSERNLPLEYHPFPAILPKSATVAMLGTFPPTSEKRCMEFHYPNFQNDMWRIMGLLFYKNLDHFRVDQEKRFDPVRIEAFLREKGIALCSSAQTAIRLKGNASDKDLKIIDAIDMQALLTELPQLKWLFTTGGLATETLLSLLPEKSKLPKTNEWINYPYTTDRTLYLYRLPSTSRAYPLSLAKKVEAYRQFFVRVGVL | failed
MPEVSFIICTRNRVAVLEACLKSVQAACRAHAGFAAELVVVDNGSSDRTAERLASIAAMSDIPFTPVSEPRRGLAAARNAGLRRARGRVLVFVDDDCAVHCDYLRDLERHYASGEQGLIRGGRVELGDPRDLPFTIKRSRVCERLTPDIHPGGFVLGCNMTMHRDVAARIGDFDERFGAGGPLRSAEDTDYLVRAVLLGIPVEYVPDMTIFHHHGRRDRKAIEKLHRDYSLGNGGLCLKHIRHAPWLLRHFYWAARGALRELAGGPAFDRDLDLSHRPIVGMNVLGAARYALLLLARRPQAEPARQDQQANAEAPLLEHHHHHH | failed
MENEGASTVCPLDPGSPLFLSGDGFEPVGVLFPHAVFHFPSKEKKEAYDFMDKVVDKHRRLCDERQRLGLKNESEVDVKNEGSTSNPEPAVKEPVPEPLP | not failed
LDAVVQEKFSGRRWTIPAKVYARPLELFNGLKLSREDFLRELDALGYRREPSVSGPGTVSVAASAVELNTRGFQFYEGAEPAQRVRVRFNGNYVSGLSQANGKELAVARLEPLLIGGLYPAHHEDRILVKLDQVPTYLIDTLVAVEDRDFWNHHGVSLKSVARAVWVNTTAGQLRQGGSTLTQQLVKNFFLSNERSLSRKINEAMMAVLLELHYDKRDILESYLNEVFLGQDGQRAIHGFGLASQYFFSQPLAELKLDQVALLVGMVKGPSYFNPRRYPDRALARRNLVLDVLAEQGVATQQEVDAAKLRPLGVTRQGSMADSSYPAFLDLVKRQLRQDYRDEDLTEEGLRIFTSFDPILQEKAETSVNETLKRLSGRKGVDQVEAAMVVTNPETGEIQALIGSRDPRFAGFNRALDAVRPIGSLIKPAVYLTALERPSKYTLTTWVQDEPFAVKGQDGQVWRPQNYDRRSHGTIFLYQGLANSYNLSTAKLGLDVGVPNVLQTVARLGINRDWPAYPSMLLGAGSLSPMEVATMYQTIASGGFNTPLRGIRSVLTADGQPLKRYPFQVEQRFDSGAVYLVQNAMQRVMREGTGRSVYSQLPSSLTLAGKTGTSNDSRDSWFSGFGGDLQAVVWLGRDDNGKTPLTGATGALQVWASFMRKAHPQSLEMPMPENVVMAWVDAQTGQGSAADCPNAVQMPYIRGSEPAQGPGCGSQNPAGEVMDWV | failed
MSTQKQEQAFFGLVWLARLTVCLLTVGLALAIDSTATERHRADVRAKWQEKVDDLGLRLRATILQNTQTVWGLAANVAVQPDIGEERFQRLASVIFKLAPELLNIGLAPGFVIKHIYPLDGNEAALGLDLQAQSLSRDQMALLLESRRAVFSGPINLVQGGQGLAARIPIFENDTGRVWGVISTILDLDRLYTAIGLDSLPPEVVFALSTTGSGNIDKGLFFGEPDAAWQEPVSTTMAMPGFSWKLYAQPADGWPDHPDSPWLLRSLLGLVTLIIIAGTLWITTLILRDRQMQLRFWGLFELAPFGIALYDAISGELLQANPGFTRILDSKANNIGYFDDVRSLSGDKQRSEPSISNRLASQVRFTGVEGFFPMADGTLQPLMLHGLRLDLQGKESVIWIIVEDISQRKEAERLKSEFISTVSHELRTPLTSISGALSLLTTNAVGELSGKAQQLLKIAQRNSDQLGFLINDLLDIEKLIAGKMDFNVIEFPVSEAITESLENIQNYATEKNITLNAQELSTTTVKADKQRLAQALNNILSNAIKFSPVNGQIRIWTKLHGQGLRIYVQDEGPGIAPEFRERMFQKFSQADSSDRRSKGGTGLGLAITKELMARMEGDVDFTSEAGQGATFWLEVPAA | failed
MPKANLEIIRSTYEGSASSNAKHLAEALSEKVEWTEAEGFPYGGTYIGVEAIMENVFSRLGSEWNDYKASVNMYHEVSGKDVIIAEGMYSGVYKDTGKSFEAEFVHVWQLENGKIVKFKQYVDSHLVREAMKS | not failed
MWRRSLTESHSNELRLELTSRIVSAYLSRNVIAPSELPHLIQQTYGSLGKTSEPTKTPATVEEQRPAVPIKKSVTDDFIVCLEDGKSFKSLKRHLMAKYALTPEQYREKWKLPADYPMVAPNYARKRSELARATGLGKKSAANLSPSLQAVRSA | not failed
MLKFLSVRVEDHIAVATLNHAPANAMSSQVMHDVTELIDQVEKDDNIRVVVIHGEGRFFSAGADIKEFTSVTEAKQATELAQLGQVTFERVEKCSKPVIAAIHGAALGGGLEFAMSCHMRFATESAKLGLPELTLGLIPGFAGTQRLPRYVGKAKACEMMLTSTPITGAEALKWGLVNGVFAEETFLDDTLKVAKQIAGKSPATARAVLELLQTTKSSHYYEGVQREAQIFGEVFTSEDGREGVAAFLEKRKPSFSGR | not failed
